The results in this text go back to US20190177396A1 (INSERM INSTITUTE NATIONAL DE LA SANTE ET DE LA RECHERCHE …, published 2019).

For data set [1], the target named is the 23-mer peptide. As to the kind of experiment: BIAcore; format not described. (In SPR one partner is held on a chip, and binding of the other changes the refractive index at the surface.)
Data set [2] has as its target CD31shed (residual cell-bound human CD31 after shedding between the 5th and 6th extracellular Ig-like domains) (human) (UniProt P16284). As to the kind of experiment: 10-colour flow cytometry on human peripheral blood leukocytes of a healthy donor, WM59-PE against PECAM 1.2-FITC; gate 3 (CD8) = naive CD8+ T cells. Background: Flow cytometry measures light scatter and fluorescence of single cells or particles in a stream.

Data set [3] shares this target. As to the kind of experiment: 10-colour flow cytometry on human peripheral blood leukocytes of a healthy donor, WM59-PE against PECAM 1.2-FITC; gate CD20 = B lymphocytes.
The target is the same in data set [4]. As to the kind of experiment: 10-colour flow cytometry on human peripheral blood leukocytes of a healthy donor, WM59-PE against PECAM 1.2-FITC; gate 3 (CD4) = naive CD4+ T cells.
For data set [5] the target is unchanged. As to the kind of experiment: 10-colour flow cytometry on human peripheral blood leukocytes of a healthy donor, WM59-PE against PECAM 1.2-FITC; gate 1 (CD4) = activated CD4+ T cells.
The target is the same in data set [6]. As to the kind of experiment: 10-colour flow cytometry on human peripheral blood leukocytes of a healthy donor, WM59-PE against PECAM 1.2-FITC; gate 2 (CD8) = memory CD8+ T cells.
Data set [7] deals with human CD31 (PECAM-1) (human) (UniProt P16284). As to the kind of experiment: 10-colour flow cytometry on human peripheral blood leukocytes of a healthy donor, WM59-PE against PECAM 1.2-FITC; gate 3 (CD8) = naive CD8+ T cells.
Data set [8] has the same target. As to the kind of experiment: 10-colour flow cytometry on human peripheral blood leukocytes of a healthy donor, WM59-PE against PECAM 1.2-FITC; gate CD20 = B lymphocytes.
The target is the same in data set [9]. As to the kind of experiment: 10-colour flow cytometry on human peripheral blood leukocytes of a healthy donor, WM59-PE against PECAM 1.2-FITC; gate 3 (CD4) = naive CD4+ T cells.
Data set [10] shares this target. As to the kind of experiment: 10-colour flow cytometry on human peripheral blood leukocytes of a healthy donor, WM59-PE against PECAM 1.2-FITC; gate 1 (CD4) = activated CD4+ T cells.
The target is the same in data set [11]. As to the kind of experiment: 10-colour flow cytometry on human peripheral blood leukocytes of a healthy donor, WM59-PE against PECAM 1.2-FITC; gate 2 (CD8) = memory CD8+ T cells.
Data set [12] deals with the molecule itself. As to the kind of experiment: SPR (BIAcore 2000), peptide coated on CM5 chip, same peptide injected at 12.5-100 µM. As to the method:
Plasmon Surface Resonance. Homophilic binding association and dissociation constants were calculated by surface plasmon resonance (BIAcore® 2000, GE). […] Dissociation was monitored for 300 seconds. Association (kon) and dissociation (koff) constants were calculated using the BIAevaluation 3.0 Software (GE).

Broadly, the Kd is the free concentration of one partner at which half of the binding sites on the other are occupied at equilibrium, for simple one-to-one binding. Low readings indicate tighter binding, high ones weaker binding. In the case of “alternatively spliced soluble CD31 (receptor)”, in data set [1], the Kd was 17 µM.
In the case of “anti-CD31 monoclonal antibody clone PECAM 1.2”, the percent of gated cells in the lower right quadrant (dom1-/dom6+) in data set [2] worked out at 23.5; in [3], 12; in data set [4], 28.1; in data set [5] it was 90.6; in data set [6], 29.7.
Take “anti-CD31 monoclonal antibody clone WM-59”: the percent of gated cells in the upper right quadrant (dom1+/dom6+) stood at 76.5 in data set [7]; 88 in [8]; 71.9 in data set [9]; 9.4 in [10]; 70.3 in [11].

B1: mouse CD31 peptide 551-574 (peptide)
peptide: SSMRTSPRSSTLAVRVFLAPWKK
notes: Synthetic peptide, juxta-membrane 23 amino acids of the mouse CD31 ectodomain; In the SPR assay it was both coated on the CM5 chip and injected as analyte
Broadly, the koff is the first-order rate constant of dissociation. A lower koff goes with slow dissociation. Broadly, the kon is the second-order rate constant of association. A high value points to fast association. Turning to B1, in data set [12], the affinity, expressed as Kd, was 17.8 µM; the koff came to 0.00158 s⁻¹; the kon was 134 M⁻¹ s⁻¹.
